In the supplement of paper PMC7877785:
± gives the uncertainty stated by the source.

Test: self-splicing fitness, log relative to wild type (ln ratio); higher = more splicing; Tetrahymena group I intron in knt gene, E. coli kanamycin selection, DiMSum; sequences stand for … in CUCUCU…GGAGGGAAAAGUUAUCAGGCAUGCACCUGGUAGCUAGUCUUUAAACCAAUAGAUUGCAUCGGUUUAAAAGGCAAGACCGUCAAAUUGCGGGAAAGGGGUCAACAGCCGUUCAGUACCAAGUCUCAGGGGAAACUUUGAGAUGGCCUUGCAAAGGGUAUGGUAAUAAGCUGACGGACAUGGUCCUAACCACGCAGCCAAGUCCUAAGUCAACAGAUCUUCUGUUGAUAUGGAUGCAGUUCACAGACUAAAUGUCGGUCGGGGAAGAUGUAUUCUUCUCAUAAGAUAUAGUCGGACCUCUCCUUAAUGGGAGCUAGCGGAUGAAGUGAUGCAACACUGGAGCCGCUGGGAACUAAUUUGUAUGCGAAAGUAUAUUGAUUAGUUUUGGAGUACUCGUGGUCG
How it was run: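 Six replicate transformations of E. coli BL21(DE3) with a pET-22b(+) library were grown overnight at 37°C or 30°C. The library randomised all eight P1ex-region intron nucleotides, the intron lying in the knt kanamycin-resistance gene, and plates were LB agar with or without 25 μg/mL kanamycin plus 100 μg/mL carbenicillin, 50 μM IPTG and 0.2% rhamnose. Pooled colonies were amplicon-sequenced on an Illumina HiSeq 2500, and fitness is the DiMSum error-weighted combination of wild-type-normalised replicate fold changes, kanamycin versus none.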

Row | Sequence | self-splicing fitness (ln) (30 °C) | self-splicing fitness (ln) (37 °C)
1 | CGGUAGCAAUAUUACGCUCU | -2.71 ± 0.24 | -2.43 ± 0.33
2 | CGGUAGCAAUAUUACGGACG | -0.708 ± 0.1 | -0.837 ± 0.13
3 | CGGUAGCAAUAUUACGGGGU | -4.08 ± 0.3 | -2.81 ± 0.22
4 | CGGUAGCAAUAUUACGGUUU | -3.36 ± 0.16 | -1.83 ± 0.15
5 | CGGUAGCAAUAUUACGUACG | -1.3 ± 0.12 | -0.879 ± 0.16
6 | CGGUAGCAAUAUUACGUAUG | -0.225 ± 0.092 | 0.297 ± 0.12
7 | CGGUAGCAAUAUUACGUCAG | -0.671 ± 0.15 | -1.09 ± 0.17
8 | CGGUAGCAAUAUUACGUCCG | -2.86 ± 0.3 | -2.02 ± 0.36
9 | CGGUAGCAAUAUUACGUGAU | -1.49 ± 0.14 | -0.851 ± 0.18
10 | CGGUAGCAAUAUUACGUGGC | -3.4 ± 0.17 | -3.09 ± 0.23
11 | CGGUAGCAAUAUUACGUGUA | -3.31 ± 0.2 | -2.97 ± 0.28
12 | CGGUAGCAAUAUUACGUUCG | -2.19 ± 0.14 | -1.99 ± 0.24
13 | CGUAAGCAAUAUUACGAAUC |  | -2.06 ± 0.3
14 | CGUAAGCAAUAUUACGAGAG | -3.56 ± 0.22 | -3.14 ± 0.28
15 | CGUAAGCAAUAUUACGAGCA | -1.84 ± 0.48 | -1.33 ± 0.22
16 | CGUAAGCAAUAUUACGAUUG | -0.745 ± 0.079 | -0.605 ± 0.11
17 | CGUAAGCAAUAUUACGCCGA | -3.5 ± 0.25 | -1.44 ± 0.14
18 | CGUAAGCAAUAUUACGCGAA | -3.5 ± 0.24 | -3.88 ± 0.39
19 | CGUAAGCAAUAUUACGCUAC |  | -1.98 ± 0.4
20 | CGUAAGCAAUAUUACGCUUC |  | -2.52 ± 0.45
21 | CGUAAGCAAUAUUACGGGAA | -3.04 ± 0.41 | -1.9 ± 0.44
22 | CGUAAGCAAUAUUACGGUAG | -2.56 ± 0.14 | -1.4 ± 0.1
23 | CGUAAGCAAUAUUACGGUCU | -2.56 ± 0.092 | -1.46 ± 0.081
24 | CGUAAGCAAUAUUACGGUUG | -0.897 ± 0.061 | -0.159 ± 0.078

Row | Sequence | self-splicing fitness (ln) (30 °C) | self-splicing fitness (ln) (37 °C)
25 | CGUAAGCAAUAUUACGUAGG | -1.09 ± 0.082 | -0.149 ± 0.11
26 | CGUAAGCAAUAUUACGUCAU | -3.23 ± 0.17 | -2.38 ± 0.17
27 | CGUAAGCAAUAUUACGUUGG | -1.93 ± 0.12 | -0.912 ± 0.13
28 | CGUCAGCAAUAUUACGAAAU | -3.61 ± 0.23 | -2.6 ± 0.22
29 | CGUCAGCAAUAUUACGAAUA | -2.58 ± 0.16 | -1.98 ± 0.16
30 | CGUCAGCAAUAUUACGAAUG | -0.494 ± 0.077 | -0.0535 ± 0.093
31 | CGUCAGCAAUAUUACGAGCA | -0.74 ± 0.14 | -0.627 ± 0.14
32 | CGUCAGCAAUAUUACGAUAC | -2.65 ± 0.14 | -1.38 ± 0.12
33 | CGUCAGCAAUAUUACGCACG | -2.16 ± 0.11 | -1.22 ± 0.12
34 | CGUCAGCAAUAUUACGCAUG | -1.06 ± 0.07 | 0.0876 ± 0.082
35 | CGUCAGCAAUAUUACGCCAG | -0.944 ± 0.15 | -0.48 ± 0.23
36 | CGUCAGCAAUAUUACGCGCA | -1.1 ± 0.14 | -0.181 ± 0.13
37 | CGUCAGCAAUAUUACGCGUG | -0.575 ± 0.054 | -0.39 ± 0.066
38 | CGUCAGCAAUAUUACGCUAU | -3.14 ± 0.19 | -1.55 ± 0.17
39 | CGUCAGCAAUAUUACGGCGC | -3.38 ± 0.37 | -1.3 ± 0.35
40 | CGUCAGCAAUAUUACGGGAC | -3.95 ± 0.25 | -1.73 ± 0.23
41 | CGUCAGCAAUAUUACGGGAG | -2.36 ± 0.098 | -0.946 ± 0.11
42 | CGUCAGCAAUAUUACGGGUU | -3.44 ± 0.17 | -2.56 ± 0.15
43 | CGUCAGCAAUAUUACGGUAU | -2.04 ± 0.11 | -2.59 ± 0.16
44 | CGUCAGCAAUAUUACGGUGA | -2.52 ± 0.11 | -2.81 ± 0.16
45 | CGUCAGCAAUAUUACGGUUU | -2.39 ± 0.098 | -1.97 ± 0.097
46 | CGUCAGCAAUAUUACGUAUG | -0.163 ± 0.12 | 0.188 ± 0.13
47 | CGUCAGCAAUAUUACGUCCG | -1.03 ± 0.11 | -0.273 ± 0.14
48 | CGUCAGCAAUAUUACGUCCU | -1.88 ± 0.081 | -1.27 ± 0.098
